Experimental data from patent US11054430B2, “Compounds and methods for the detection of methotrexate” (Defined Diagnostics, LLC, priority 2015, dated 2021).
Where a chain is given by its changes, count along the chain named.

B1: mAb 10C7: anti-methotrexate mouse monoclonal antibody; variable heavy chain SEQ ID NO:3, variable light chain SEQ ID NO:4 (antibody, V domains shown)
VH: EVQLVESGGGLVKPGGSLRLSCAASGFTFRTYAMSWVRQTPEKRLEWVATITSGGTYIYYLDSVKGRFTISRDNAKNVLYLQMSSLRSEDTAMYYCVRLYGYDGMDYWGQGTSVTVSA
VL: QAVVTQESALTTSPGETVTLTCRSSTGAVSTSNYVNWVQEKPDHLFTGLIGGTKNRVPGVPARFSGSLIGDKAALTITGAQTEDEAIYFCALWYTNHLVFGGGTKLTVL
modifications: mouse
B2: mAb 6D4: anti-methotrexate mouse monoclonal antibody; variable heavy chain SEQ ID NO:11, variable light chain SEQ ID NO:12 (antibody, V domains shown)
VH: QIQLVQSGPELKKPGETVKISCKASGYTFTNYGMNWVKRAPGKGLKWMGWINPYTGEPTYADDFKGRFAFSLETSASTAYLQINNLKNEDMATYFCARNDYYYALDSWGQGTSVTVSS
VL: DVVMTQSPLSLPVSLGDQASISCRSSQSLVKSNGNTYLHWFLQKSGQSPKLLIYKVSNRFSGVPDRFSGSGSGTDFTLKISRVEAEDLGVYFCSQSTHVPWTFGGGTKLEIK
modifications: mouse
B3: mAb 19A6: anti-methotrexate mouse monoclonal antibody; variable heavy chain SEQ ID NO:7, variable light chain SEQ ID NO:8 (antibody, V domains shown)
VH: QIQLVQSGPELKRPGETVKISCKASGYTYTYYGINWLKQAPGKDLKWMGWINPYTGEPAYADDFKGRFAFSLETSATTTYLQINNLKNEDMATYFCARNSYYYALDYWGQGTSVTVSS
VL: B2 VL with S7T, S14N, S28N, S45P
modifications: mouse

Assay: MTX antibody cross-reactivity with Folic Acid (competitive assay)
Format: binding
Settings: chemical spiked at 100 μM; calculated MTX concentration divided by 100 μM
Protocol: (§1) The 4 selected MTX antibodies, 10C7, 45C11, 6D4, 19A6, were evaluated for cross-reactivity with MTX metabolites and related compounds (7-OH-MTX, DAMPA, Folic Acid and Folinic Acid). The amount of cross-reactivity with each chemical is defined as the percent ratio of the calculated MTX concentration of the chemical divided by 100 μM, which was the spiked concentration of the chemical.

Compared with B1, B2 is higher in “% Cross-Reactivity with Folic Acid” value: 0.24% for the first, 0.48% for the second.

With B3 the “% Cross-Reactivity with Folic Acid” value was 0.073%.

Assay: MTX antibody cross-reactivity with Folinic Acid (competitive assay)
Format: binding
Settings: chemical spiked at 100 μM; calculated MTX concentration divided by 100 μM
Protocol: as §1

Compared with B1, B2 is lower in “% Cross-Reactivity with Folinic Acid” value: 0.28% for the first, 0.24% for the second.

In the case of B3, the “% Cross-Reactivity with Folinic Acid” value is reported as 0.11%.

Assay: MTX antibody cross-reactivity with 7-OH-MTX (competitive assay)
Format: binding
Settings: chemical spiked at 100 μM; calculated MTX concentration divided by 100 μM
Protocol: as §1

Compared with B1, B2 is higher in “% Cross-Reactivity with 7-OH-MTX” value: 0.37% for the first, 0.91% for the second.

In the case of B3, the “% Cross-Reactivity with 7-OH-MTX” value is reported as 0.76%.

Assay: MTX antibody cross-reactivity with DAMPA (competitive assay)
Format: binding
Settings: chemical spiked at 100 μM; calculated MTX concentration divided by 100 μM
Protocol: as §1

Going from B1 to B2, the “% Cross-Reactivity with DAMPA” value rises from 0.43% to 0.52%.

With B3 the “% Cross-Reactivity with DAMPA” value was 0.029%.
